Reference: patent US20210238279A1 (Johns Hopkins, published 2021)

Tests used:
[1] = biological target: T1, mouse ZnT8-His (mouse, UniProt Q8BGG0 1-367, limits assumed); test: ELISA titration on ZnT8-His immobilized on Ni-NTA plate; reference is human ZnT8-His; fold ratio of mouse to human apparent affinity; Ni-NTA plate titration
T1 construct: Over-expressed in HEK293 cells, solubilized with DDM and immobilized on Ni-NTA plates, or SDS-denatured on immunoblots; not shown: C-terminal poly-histidine tag
T1 sequence (looked up): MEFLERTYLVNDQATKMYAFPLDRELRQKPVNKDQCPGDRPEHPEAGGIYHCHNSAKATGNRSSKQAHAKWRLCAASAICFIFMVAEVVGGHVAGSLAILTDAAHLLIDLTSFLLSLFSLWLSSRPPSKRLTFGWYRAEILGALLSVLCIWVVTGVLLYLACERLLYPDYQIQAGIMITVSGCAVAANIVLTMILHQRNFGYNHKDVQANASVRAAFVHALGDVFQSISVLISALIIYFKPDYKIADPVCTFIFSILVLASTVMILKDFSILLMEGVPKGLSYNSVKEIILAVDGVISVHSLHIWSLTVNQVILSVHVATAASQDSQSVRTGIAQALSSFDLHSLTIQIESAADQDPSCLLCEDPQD
Description: (§1) FIG. 7A-7D. mAb binding specificities (FIG. 7A) mAb binding to ZnT8-His immobilized to Ni-NTA plate. Bound mAb20 (red) or mAb39 (magenta) was detected by an HRP-conjugated secondary antibody. Solid lines are least-squares fits of binding datapoints to a one-component binding process. Error bars are standard errors (n=8). (FIG. 7B) SDS-denatured mouse ZnT8-His (labeled as M) and human ZnT8-His (labeled as H) on immunoblots were detected by mAb20 or mAb39 as indicated. […] (FIG. 7C) Detection of endogenous human ZnT8 in EndoC-βH cells by mAb20 or […] immunoblotting. An equal amount of EndoC-βH lysate (5 μg total protein) was loaded to each lane. (FIG. 7D) Immunoblotting of HEK lysates with or with over-expression of a ZnT homolog as indicated. An approximately equal amount of total lysate protein (5 μg) was located to each lane, probed by either mAb20, mAb39, or anti-FALG antibody as indicated. FIG. 8. HTRF response to human ZnT8, mouse ZnT8 and human ZnT3.
(§2) Binding specificities. […] Of note, the epitope-masking effect of ZnT8 immobilization weakened the apparent binding affinities of both mAbs as compared to the affinities determined by flow-cytometry, and such a weakening effect was more pronounced for mAb39, probably due to a closer proximity of the mAb39 epitope to the C-terminal His-tag. Next, we compared the immunoreactivities of mAbs to denatured ZnT8.

[2] = biological target: T2, human ZnT8-His (human, UniProt Q8IWU4-2 1-320, limits assumed); test: ELISA, ZnT8-His on Ni-NTA plate, HRP-conjugated secondary antibody; curve taken as human by paragraph 166
T2 construct: Over-expressed in HEK293 cells, solubilized with DDM and immobilized on Ni-NTA plates (native or unfolded with 2% SDS), or SDS-denatured on immunoblots; also called human ZnT8 with C-terminal poly-histidine tag; not shown: C-terminal poly-histidine tag
T2 sequence (looked up): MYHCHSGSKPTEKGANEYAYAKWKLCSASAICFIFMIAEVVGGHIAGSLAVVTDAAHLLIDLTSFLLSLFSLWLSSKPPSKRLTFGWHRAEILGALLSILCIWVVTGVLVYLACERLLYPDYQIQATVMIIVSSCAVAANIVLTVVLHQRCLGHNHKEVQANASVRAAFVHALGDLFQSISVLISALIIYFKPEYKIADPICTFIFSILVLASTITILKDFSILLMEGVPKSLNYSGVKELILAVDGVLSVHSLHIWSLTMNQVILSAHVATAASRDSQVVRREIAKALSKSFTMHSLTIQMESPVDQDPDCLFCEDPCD
Description: as §1, §2

[3] = biological target: T2, human ZnT8-His; test: ELISA on ZnT8-His on Ni-NTA plate, native against unfolded with 2% SDS
Description: FIG. 4A-4C. mAb binding stabilized ZnT8 folding (FIG. 4A) mAb binding to folded or denatured ZnT8. ZnT8-His in detergent micelles was immobilized to a Ni-NTA plate in replication w/o SDS denaturation. ELISAs against denatured (triangle) and non-denatured ZnT8 (circle) were compared for mAb20 and mAb39 as indicated. CTDA and MSA were used as a positive and negative control, respectively. Error bars are standard deviations. (FIG. 4B) mAb binding to folded ZnT8-GFP in detergent micelles. mAb20 or mAb39 was mixed with ZnT8-GFP and then the binding mixture was analyzed by size-exclusion HPLC with GFP-fluorescence detection. […] (FIG. 4C) Protection of ZnT8 unfolding. Aliquots of ZnT8 in detergent micelles were incubated with Fab20 (red), Fab39 (magenta), or Fab20+Fab39 (brown). […] After a designated time of heat denaturation as indicated, protein aggregates were removed by ultracentrifugation, and the amount of remaining ZnT8 in the supernatant was detected by mAb20 immunoblotting (upper panel). […]
Folding dependence. To compare the difference in mAb bindings to native and denatured ZnT8, we used 2% SDS to unfold immobilized ZnT8-His on a Ni-NTA plate, and then compared denatured ELISA readouts with non-denatured replicates. The native readout of mAb20 was about two-fold higher than the denatured readout (FIG. 4A), indicating a moderate selectivity for folded conformation over unfolded ZnT8. […]

[4] = biological target: T1, mouse ZnT8-His; test: ELISA titration on ZnT8-His immobilized on Ni-NTA plate; reference is human ZnT8-His
Description: as §1, §2

[5] = biological target: T1, mouse ZnT8-His; test: ELISA, ZnT8-His on Ni-NTA plate, HRP-conjugated secondary antibody; binder taken from the axis label and paragraph 166; curve taken as mouse
Description: as §1, §2

Binder	fold difference in apparent binding affinity, mouse against human ZnT8 [1] [fold]	EC50 (read off the curve) [2] [nM]	ratio of native to SDS-denatured ELISA readout [3] [fold]	fold difference in apparent binding affinity, mouse against human ZnT8 [4] [fold]	EC50 (read off the curve) [5] [nM]
mAb20 (antibody, V domains shown, Mouse hybridoma mAb purified on protein A/G; In some assays it was labelled with Alexa Fluor 488 or terbium cryptate; also called monoclonal antibody mAb20; anti-ZnT8 mAb20) VH: QIQLVQSGPELKKPGETVKISCKASGYIFTNYPMHWVKQAPGKGLKWMGWINTYSGVPTHADDFKGRFAFSLETSANSAFLQINNLKNEDTATYFCTRSRITPTGGYAMDYWGQGTSVTVSS VL: DVVMTQTPLSLPVSLGDQASISCRSSQSLVHSNGNTYLHWYLQKPGQSPNLLISKVSNRFSGVPERFSGSGSGTDFTLKISRVEAEDLGVYFCSQNTHVPWTFGGGTKLEIKR	567	~3	~2	–	–
mAb39 (antibody, V domains shown, Mouse hybridoma mAb purified on protein A/G; In some assays it was labelled with Alexa Fluor 555 or d2; also called monoclonal antibody mAb39; anti-ZnT8 mAb39) VH: QVQLQQPGAELVKPGASVKLSCKASGYSFTTYWMHWVKQRPGQGLEWVGDINPRNGRTNYNEKSKSKATLTVDISSSTVYMQVSSLTSEDSAVYYCAIWSGAMDYWGPGTSVTVSS VL: DVVMTQTPLSLPVSLGDQPSISCKSSQSLVHNNGNTYLHWYLQKPGQSPKLLIYKVSNRFSGVPDRFSGSGSGTDFTLKISRVEAEDLGVYFCSQTTHVPPTFGGGTKLEIKR	–	–	–	2	~30
